Drawing on publication PMC12724329, this text covers fold change of the interaction on gcDDX56 knockdown against the siRNA control for one substance.

The target in the assay is gcKPNB3-FLAG (grass carp importin beta 3, FLAG-tagged) (grass carp). The assay can be described thus: co-IP; co-IP of IRF3 with gcKPNB3 from GCRV-infected CIK cells with gcDDX56 overexpressed (+, 4 µg; ++, 8 µg plasmid) or knocked down by siRNA; bands quantified with ImageJ.

With “gcIRF3-HA (grass carp IRF3, HA-tagged) (natural protein)”, the fold change of the interaction on gcDDX56 knockdown against the siRNA control amounted to 3.23 fold.
